From paper PMC4960544, “Production of full-length soluble Plasmodium falciparum RH5 protein vaccine using a Drosophila melanogaster Schneider 2 stable cell line system” (Scientific Reports, 2016)

B1: PfRH5 (reticulocyte-binding protein homolog 5): v3.0 (four Asn to Gln) (protein)
parent chain: MIRIKKKLILTIIYIHLFILNRLSFENAIKKTKNQENNLTLLPIKSTEEEKDDIKNGKDIKKEIDNDKENIKTNNAKDHSTYIKSYLNTNVNDGLKYLFIPSHNSFIKKYSVFNQINDGMLLNEKNDVKNNEDYKNVDYKNVNFLQYHFKELSNYNIANSIDILQEKEGHLDFVIIPHYTFLDYYKHLSYNSIYHKSSTYGKCIAVDAFIKKINETYDKVKSKCNDIKNDLIATIKKLEHPYDINNKNDDSYRYDISEEIDDKSEETDDETEEVEDSIQDTDSNHTPSNKKKNDLMNRTFKKMMDEYNTKKKKLIKCIKNHENDFNKICMDMKNYGTNLFEQLSCYNNNFCNTNGIRYHYDEYIHKLILSVKSKNLNKDLSDMTNILQQSELLLTNLNKKMGSYIYIDTIKFIHKEMKHIFNRIEYHTKIINDKTKIIQDKIKLNIWRTFQKDELLKRILDMSNEYSLFITSDHLRQMLYNTFYSKEKHLNNIFHHLIYVLQMKFNDVPIKMEYFQTYKKNKPLTQ
B2: PfRH5 (reticulocyte-binding protein homolog 5): v2.0 (four Thr to Ala) (protein)
parent chain: B1 parent chain
B3: PfRH5 (reticulocyte-binding protein homolog 5): v4.0 (N38Q and N214Q) (protein)
parent chain: B1 parent chain

What was measured:
basigin (Homo sapiens) = basigin (Homo sapiens) (UniProt P35613); assay: SPR; conditions: cited from earlier work
Chain of basigin (Homo sapiens) (P35613 22-325): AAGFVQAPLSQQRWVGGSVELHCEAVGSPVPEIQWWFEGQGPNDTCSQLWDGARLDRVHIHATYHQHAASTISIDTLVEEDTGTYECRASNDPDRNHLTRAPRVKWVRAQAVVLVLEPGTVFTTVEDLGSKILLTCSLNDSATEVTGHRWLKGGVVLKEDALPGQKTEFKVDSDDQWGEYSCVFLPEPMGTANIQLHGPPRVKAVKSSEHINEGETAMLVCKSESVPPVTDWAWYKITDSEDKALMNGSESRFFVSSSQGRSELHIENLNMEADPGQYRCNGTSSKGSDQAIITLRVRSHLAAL

[1] = rabbit serum anti-PfRH5 v2.0 IgG ELISA; conditions: glycan lost; control: v5.0 (native sequons, glycosylated)
[2] = single-cycle GIA with purified rabbit total IgG; conditions: glycan lost; control: v5.0 (native sequons, glycosylated)
[3] = GIA versus anti-PfRH5 IgG concentration, fitted curves; conditions: glycan lost; control: v5.0 (native sequons, glycosylated)

Molecule | Kd (basigin (Homo sapiens)) [nM] | other: immunogenicity, other: median PfRH5-specific IgG [1] | other: immunogenicity (growth inhibition by induced IgG), EC50 [2] | other: immunogenicity (antibody quality, GIA per antigen-specific IgG), EC50 [3]
PfRH5 (from UniProt Q8IFM5) | 1500 |  |  | 
B1 |  | increases, 535 vs 40 | increases, 8.4 vs >10 | 
B2 |  | increases, 278 vs 40 | increases, 4 vs >10 | no change, median EC50 of 129 μg/mL (95% CI 80.7–186.7 μg/mL) anti-PfRH5 IgG
B3 |  | increases, 116 vs 40 | no change, >10 vs >10 | 
